According to patent publication US20250186597A1, “TARGETED IMMUNE ACTIVATION WITH IL-18 IMMUNOCYTOKINES” (BRIGHT PEAK THERAPEUTICS AG, priority 2023, published 2025):

Experiments:
human IL-18BP = biological target: T1, human IL-18BP (Homo sapiens, UniProt O95998); test: IL-18BP binding alphaLISA assay (Example 4, used in Example 22B); conditions: IL-18BP AlphaLISA
T1 construct: His
T1 sequence (O95998 31-194): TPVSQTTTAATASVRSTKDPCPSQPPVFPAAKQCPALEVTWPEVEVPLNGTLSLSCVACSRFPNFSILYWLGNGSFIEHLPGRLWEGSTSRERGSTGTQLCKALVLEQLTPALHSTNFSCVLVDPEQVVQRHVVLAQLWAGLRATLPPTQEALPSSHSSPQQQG

NK-92 cells [1] = test: IFNγ induction cellular assay in NK-92 cells (Example 4, used in Example 22C); type: cell-based, human; conditions: IFNg stimulation in NK92 cells
Description: The ability of immunocytokines and IL-18 polypeptides provided herein are assessed for ability to induce IFN[…] in a cellular assay according to the protocol below.
The NK cell line NK-92 derived from a patient with lymphoma (ATCC® CRL-2407™) is cultured in aMEM medium supplemented with 20% FCS, Glutamax, 25 µM B-mercaptoethanol, and 100 IU/mL of recombinant human IL-2.
On the day of experiment, cells are harvested and washed with aMEM medium without IL-2 and containing 1 ng/mL of recombinant human IL-12. After counting, cells are seeded at 100,000 cells/well in a 384 well titer plate and incubated at 37° C./5% CO2. Sixteen 4-fold serial dilutions of IL-18 analytes are prepared in aMEM medium, and 1 ng/mL of IL-12 were added to the NK-92 cells. Final IL-18 analyte concentrations range from 56 nM to 5×10^−5 pM.
After incubating the cells for 16-20 hr at 37° C./5% CO2, 5 μL of supernatant is carefully transferred to a 384 microwell OptiPlate. IFNγ levels are measured using a human IFNγ AlphaLISA Assay Kit. Briefly, 10 μL of 2.5× AlphaLISA Anti-IFNγ acceptor beads and biotinylated antibody anti-IFNγ mix are added to the 5 μL of NK-92 supernatants. The mixtures are incubated for 1 hr at room temperature with shaking. Under subdued light, 2.5 μL of 2× streptavidin (SA) donor beads are pipetted into each well, and the wells are incubated for 30 min at room temperature with shaking. AlphaLISA signals are then measured on an EnSpire™ plate reader using 680 nm and 615 nm as excitation and emission wavelengths, respectively. Half maximal effective concentrations (EC50) are calculated based on a variable slope and four parameter analysis using GraphPad PRISM software.
(§1) The experiments described in Example 4 for determination of IFNg stimulation in NK92 cells (and inhibition by IL-18 BP) were performed substantially as described on IL-18 polypeptides in order to assess their activities and their suitability for incorporation into immunocytokine compositions. It is expected that the IL-18 polypeptides provided below would behave analagously to C086 (SEQ ID NO: 30) when incorporated into an immunocytokine composition as those otherwise provided herein.

NK-92 cells [2] = test: IL-18 binding protein inhibition cellular assay in NK-92 cells (Example 4, used in Example 22C); type: cell-based, human; conditions: inhibition by IL-18BP of IFNg stimulation in NK92 cells
Description: The NK cell line NK-92 derived from a patient with lymphoma (ATCC® CRL-2407™) is cultured in aMEM medium supplemented with 20% FCS-Glutamax, 25 µM B-mercaptoethanol, and 100 IU/mL of recombinant human IL-2.
On the day of experiment, cells are harvested and washed with aMEM medium without IL-2 and containing 1 ng/mL of recombinant human IL-12. After counting, the cells are seeded at 100,000 cells/well in a 384 well titer plate and incubated at 37° C./5% CO2. Sixteen 2-fold serial dilutions of Fc-fused human IL-18 binding protein isoform a (IL-18BPa) are prepared in aMEM medium. 1 ng/mL of IL-12 containing 2 nM of each IL-18 polypeptide variant is added to the NK-92 cells. The final IL-18 analyte concentration is 1 nM, and the final IL-18BPa concentration ranged from 566 nM to […].
After incubating the cells for 16-20 hr at 37° C./5% CO2, 5 μL of the supernatant is carefully transferred to a 384 microwell OptiPlate. IFNγ levels are measured using a human IFNγ AlphaLISA Assay Kit. Briefly, 10 μL of 2.5× AlphaLISA anti-IFNγ acceptor beads and biotinylated antibody anti-IFNγ mix are added to 5 μL of NK-92 supernatants. The mixtures are incubated for 1 hr at room temperature with shaking. Under subdued light, 2.5 μL of 2×SA donor beads are pipetted in each well and incubated for 30 min at room temperature with shaking. AlphaLISA signals are then measured on an EnSpire™ plate reader using 680 nm and 615 nm as excitation and emission wavelengths, respectively. Half maximal inhibitory concentrations (IC50) are calculated based on a variable slope and four parameter analysis using GraphPad PRISM software.
as §1

Molecule	Kd (human IL-18BP)	EC50 (NK-92 cells [1])	IC50 (NK-92 cells [2])
C159: IL-18 polypeptide: V11I, C38A, K53A, C76A, H109A, C127A (protein) YFGKLESKLSIIRNLNDQVLFIDQGNRPLFEDMTDSDARDNAPRTIFIISMYADSQPRGMAVTISVKCEKISTLSAENKIISFKEMNPPDNIKDTKSDIIFFQRSVPGADNKMQFESSSYEGYFLAAEKERDLFKLILKKEDELGDRSIMFTVQNED	0.55 nM	0.123 nM	1.81 nM
C163: IL-18 polypeptide: V11I, C38A, C76A, Q103K, C127A (protein) YFGKLESKLSIIRNLNDQVLFIDQGNRPLFEDMTDSDARDNAPRTIFIISMYKDSQPRGMAVTISVKCEKISTLSAENKIISFKEMNPPDNIKDTKSDIIFFKRSVPGHDNKMQFESSSYEGYFLAAEKERDLFKLILKKEDELGDRSIMFTVQNED	0.05 nM	0.093 nM	0.823 nM
C165: IL-18 polypeptide: V11I, C38A, S55R, C76A, C127A (protein) YFGKLESKLSIIRNLNDQVLFIDQGNRPLFEDMTDSDARDNAPRTIFIISMYKDRQPRGMAVTISVKCEKISTLSAENKIISFKEMNPPDNIKDTKSDIIFFQRSVPGHDNKMQFESSSYEGYFLAAEKERDLFKLILKKEDELGDRSIMFTVQNED	0.15 nM	0.176 nM	0.885 nM
C160: IL-18 polypeptide: V11I, C38A, K53A, C76A, D110A, C127A (protein) YFGKLESKLSIIRNLNDQVLFIDQGNRPLFEDMTDSDARDNAPRTIFIISMYADSQPRGMAVTISVKCEKISTLSAENKIISFKEMNPPDNIKDTKSDIIFFQRSVPGHANKMQFESSSYEGYFLAAEKERDLFKLILKKEDELGDRSIMFTVQNED	0.71 nM	0.028 nM	3.18 nM
C162: IL-18 polypeptide: K8E, V11I, C38A, C76A, Q103R, C127A (protein) YFGKLESELSIIRNLNDQVLFIDQGNRPLFEDMTDSDARDNAPRTIFIISMYKDSQPRGMAVTISVKCEKISTLSAENKIISFKEMNPPDNIKDTKSDIIFFRRSVPGHDNKMQFESSSYEGYFLAAEKERDLFKLILKKEDELGDRSIMFTVQNED	0.85 nM	0.061 nM	7.29 nM
C167: IL-18 polypeptide: V11I, C38A, C76A, S105I, C127A (protein) YFGKLESKLSIIRNLNDQVLFIDQGNRPLFEDMTDSDARDNAPRTIFIISMYKDSQPRGMAVTISVKCEKISTLSAENKIISFKEMNPPDNIKDTKSDIIFFQRIVPGHDNKMQFESSSYEGYFLAAEKERDLFKLILKKEDELGDRSIMFTVQNED	0.04 nM	0.103 nM	0.809 nM
C166: IL-18 polypeptide: V11I, C38A, S55T, C76A, C127A (protein) YFGKLESKLSIIRNLNDQVLFIDQGNRPLFEDMTDSDARDNAPRTIFIISMYKDTQPRGMAVTISVKCEKISTLSAENKIISFKEMNPPDNIKDTKSDIIFFQRSVPGHDNKMQFESSSYEGYFLAAEKERDLFKLILKKEDELGDRSIMFTVQNED	0.02 nM	0.098 nM	0.44 nM
62 (protein) YFGKLKSKLSVIRNLNDQVLFIDQGNRPLFEDMTDSDARDNAPRTIFIISMYADSQPRGMAVTISVKCEKISTLSCENKIISFKEMNPPDNIKDTKSDIIFFQRSVPGHDNKMQFESSSYEGYFLAAEKERDLFKLILKKEDELGDRSIMFTVQNED	69.6 nM	0.026 nM	284 nM
C168: IL-18 polypeptide: V11I, C38A, C76A, S105K, C127A (protein) YFGKLESKLSIIRNLNDQVLFIDQGNRPLFEDMTDSDARDNAPRTIFIISMYKDSQPRGMAVTISVKCEKISTLSAENKIISFKEMNPPDNIKDTKSDIIFFQRKVPGHDNKMQFESSSYEGYFLAAEKERDLFKLILKKEDELGDRSIMFTVQNED	0.05 nM	0.098 nM	0.176 nM
60 (protein) YFGKLKSKLSVIRNLNDQVLFIDQGNRPLFEDMTDSDQRDNAPRTIFIISMYADSQPRGMAVTISVKCEKISTLSCENKIISFKEMNPPDNIKDTKSDIIFFQRSVPGHDNKMQFESSSYEGYFLACEKERDLFKLILKKEDELGDRSIMFTVQNED	24.8 nM	0.006 nM	780 nM
C164: IL-18 polypeptide: V11I, C38A, S55H, C76A, C127A (protein) YFGKLESKLSIIRNLNDQVLFIDQGNRPLFEDMTDSDARDNAPRTIFIISMYKDHQPRGMAVTISVKCEKISTLSAENKIISFKEMNPPDNIKDTKSDIIFFQRSVPGHDNKMQFESSSYEGYFLAAEKERDLFKLILKKEDELGDRSIMFTVQNED	0.08 nM	0.414 nM	0.456 nM
59 (protein) YFGKLKSKLSVIRNLNDQVLFIDQGNRPLFEDMTDSDARDNAPRTIFIISMYADSQPRGMAVTISVKCEKISTLSCENKIISFKEMNPPDNIKDTKSDIIFFQRSVPGHDNKMQFESSSYEGYFLACEKERDLFKLILKKEDELGDRSIMFTVQNED	36 nM	0.015 nM	654 nM
34 (protein) YFGKLKSKLSVIRNLNDQVLFIDQGNRPLFEDMTDSDCRDNAPRTIFIISMYADAQPRGMAVTISVKCEKISTLSCENKIISFKEMNPPDNIKDTKSDIIFFQRSVPGHDNKMQFESSSYEGYFLACEKERDLFKLILKKEDELGDRSIMFTVQNED	> 1500 nM	0.824 nM	229 nM
C161: IL-18 polypeptide: K8R, V11I, C38A, C76A, Q103E, C127A (protein) YFGKLESRLSIIRNLNDQVLFIDQGNRPLFEDMTDSDARDNAPRTIFIISMYKDSQPRGMAVTISVKCEKISTLSAENKIISFKEMNPPDNIKDTKSDIIFFERSVPGHDNKMQFESSSYEGYFLAAEKERDLFKLILKKEDELGDRSIMFTVQNED	0.06 nM	0.057 nM	1.07 nM
35 (protein) GAGKLKSKLSVIRNLNDQVLFIDQGNRPLFEDMTDSDCRDNAPRTIFIISGYAAAQPRGMAVAISVKCEKISTLSCENKIISFKEMNPPDNIKDTKSDIIFFQRSVPGHDNKMQFESSSYEGYFLACEKERDLFKLILKKEDELGDRSIMFTVQNED	969 nM	> 55 nM	> 55 nM
